Here are results for 1 substance from US20230331798A1 (JECHO LABORATORIES, published 2023).

The target in assay [1] is EPO receptor (Sinobiological, 10707-H08H) (UniProt P19235). Nature of the assay: SPR, Biacore 8K, 25 C. In general terms: SPR reads the build-up and loss of mass on a sensor chip optically.
For assay [2], the target named is T1, EPO receptor on TF-1 cells (human, UniProt P19235 25-508).
T1 sequence (looked up): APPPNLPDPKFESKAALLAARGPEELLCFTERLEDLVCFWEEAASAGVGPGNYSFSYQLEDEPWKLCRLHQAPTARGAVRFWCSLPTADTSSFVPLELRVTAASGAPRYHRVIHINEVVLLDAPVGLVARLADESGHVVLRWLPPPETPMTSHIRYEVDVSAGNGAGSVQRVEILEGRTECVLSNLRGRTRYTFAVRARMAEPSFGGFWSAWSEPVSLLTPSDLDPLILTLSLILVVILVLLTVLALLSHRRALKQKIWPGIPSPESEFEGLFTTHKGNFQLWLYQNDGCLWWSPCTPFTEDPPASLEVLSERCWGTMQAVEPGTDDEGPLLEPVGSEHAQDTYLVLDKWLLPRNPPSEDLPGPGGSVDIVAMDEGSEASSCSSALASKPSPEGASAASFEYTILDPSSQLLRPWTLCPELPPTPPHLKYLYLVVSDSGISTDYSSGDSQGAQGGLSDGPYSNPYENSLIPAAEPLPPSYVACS
Nature of the assay: cell-based or functional assay.

“Darbepoetin (Darbe, lot #1078765A) (ligand)”: in assay [1], the Kd – broadly, the equilibrium constant for the complex coming apart – was 8.35 nM. In addition, the EC50 (ng/ml), TF-1 cell proliferation (MTS, absorbance at 490 nM) in assay [2] was found to be 11.4 ng/mL.
